Assay results reported in PMC8324831, “A synthetic nanobody targeting RBD protects hamsters from SARS-CoV-2 infection” (Nature Communications, 2021).

target: SARS-CoV-2 S-RBD with Avi-tag and deca-His tag (residues 330-531) (SARS-CoV-2, UniProt P0DTC2, biotin on the Avi tag (BirA) where immobilised on streptavidin sensors or used in ELISA and FSEC)

Row | Binder | binding result
1 | SR45 (VHH) VHH: QVQLVESGGGLVQAGGSLRLSCAASGFPVDNATMAWYRQAPGKEREWVAAIHSIGGYTTYADSVKGRFTISRDNAKNTVYLQMNSLKPEDTAVYYCVGVGKHYYGQGTQVTVS | binds
2 | SR46 (VHH) VHH: QVQLVESGGGLVQAGGSLRLSCAASGFPVFTENMHWYRQAPGKEREWVAAIYSYGVWTLYADSVKGRFTISRDNAKNTVYLQMNSLKPEDTAVYYCVVQVGEWYEGQGTQVTVS | binds
3 | SR47 (VHH) VHH: QVQLVESGGGLVQAGGSLRLSCAASGFPVKTETMHWYRQAPGKEREWVAAIYSYGTYTLYADSVKGRFTISRDNAKNTVYLQMNSLKPEDTAVYYCEVQVGEWYEGQGTQVTVS | binds
4 | SR48 (VHH) VHH: QVQLVESGGGLVQAGGSLRLSCAASGFPVNQNNMHWYRQAPGKEREWVAAIYSSGDFTLYADSVKGRFTISRDNAKNTVYLQMNSLKPEDTAVYYCEVQVGFWYTGQGTQVTVS | binds
5 | SR49 (VHH) VHH: QVQLVESGGGLVQAGGSLRLSCAASGFPVFHAYMAWYRQAPGKEREWVAAIESDGSSTHYADSVKGRFTISRDNAKNTVYLQMNSLKPEDTSVYYCAVLVGFWYAGQGTQVTVS | binds
6 | SR50 (VHH) VHH: QVQLVESGGGLVQAGGSLRLNCAASGFPVAQAVMAWYRQALGKEREWVAAMHSTGTYTAYADSVKGRFTISRDNAKNTVYLQMNSLKPEDTAVYYCAVHVGFWYAGQGTQVTVS | binds
7 | SR51 (VHH) VHH: QVQLVESGGGLVQAGGSLRLSCAASGFPVWESYMRWYRQAPGKEREWVAAIQSNGNNTWYADSVKGRFTISRDNAKNTVYLQMNSLKPEDTAVYYCVVYVGYEYHGQGTQVTVS | binds
8 | SR52 (VHH) VHH: QVQLVESGGGLVQAGGSLRLSCAASGFPVNNMEMTWYRQAPGKEREWVAAIASDGSYTEYADSVKGRFTISRDNAKNTVYLQMNSLKPEDTAVYYCYVWVGKSYIGQGTQVTVS | binds
9 | SR53 (VHH) VHH: QVQLVESGGGLVQAGGSLRLSCAASGFPVYSQHMHWYRQAPGKEREWVAAIYSNGTYTLYADSVKGRFTISRDNAKNTVYLQMNSLKPEDTAVYYCEVNVGEWYEGQGTQVTVS | binds
10 | SR54 (VHH) VHH: QVQLVESGGGLVQAGGSLRLSCAASGFPVSQARMHWYRQAPGKEREWVAAIGSSGDFTRYADSVKGRFTISRDNAKNTVYLQMNSLKPEDTAVYYCEVQVGQWYEGQGTQVTVS | binds
11 | SR55 (VHH) VHH: QVQLVESGGGLVQAGGSLRLSCAASGFPVDTTNMHWYRQAPGKEREWVAAIYSSGGFTLYADSVKGRFTISRDNAKNTVYLQMNSLKPEDTAVYYCTVWVGDWYEGQGTQVTVS | binds
12 | SR56 (VHH) VHH: QVQLVESGGGLVQAGGSLSLSCAASGFPVEHYGMYWYRQAPGKEREWVAAIRSDGQWTHYADSVKGRFTISRDNAKNTVYLQMNSLKPEDTAVYYCTVGVGSNYYGQGTQVTVS | binds
13 | SR57 (VHH) VHH: QVQLVESGGGLVQAGGSLRLSCAASGFPVEQAEMAWYRQAPGKEREWVAAIVSYGHSTYYADSVKGRFTISRDNAKNTVYLQMNSLKPEDTAVYYCAVFVGFWYAGQGTQVTVS | binds
14 | SR58 (VHH) VHH: QVQLVESGGGLVQAGGSLRLSCAASGFPVKQENMHWYRQAPGKEREWVAAIYSTGNFTLYADSVKGRFTISRDNAKNTVYLQMNSLKPEDTAVYYCAVQVGQWYEGQGTQVTVS | binds
